In publication PMC6862464, “Structural Insights into AQP2 Targeting to Multivesicular Bodies” (International Journal of Molecular Sciences, 2019):
Residue numbers refer to the chain shown, from its start.

Experiments:
[1] = target: T1, full-length human LIP5 M47A (human, UniProt Q9NP79 1-307, M47A); assay: other fluorescence titration; Alexa 488-labeled, dephosphorylated AQP2 (around 1 uM) in the cuvette, titrated with unlabeled LIP5; total fluorescence; 20 mM Tris-HCl pH 8, 300 mM NaCl, 0.2% OGNG; triplicate titrations; details: both partners purified
T1 construct: LIP5, human, full length, point mutant; spacer before the TEV site and His tag, as in m2; Mutant of m2; dimer as said of full-length LIP5 (cited); source: E. coli BL21*(DE3), purified (HisTrap, SEC)
T1 sequence: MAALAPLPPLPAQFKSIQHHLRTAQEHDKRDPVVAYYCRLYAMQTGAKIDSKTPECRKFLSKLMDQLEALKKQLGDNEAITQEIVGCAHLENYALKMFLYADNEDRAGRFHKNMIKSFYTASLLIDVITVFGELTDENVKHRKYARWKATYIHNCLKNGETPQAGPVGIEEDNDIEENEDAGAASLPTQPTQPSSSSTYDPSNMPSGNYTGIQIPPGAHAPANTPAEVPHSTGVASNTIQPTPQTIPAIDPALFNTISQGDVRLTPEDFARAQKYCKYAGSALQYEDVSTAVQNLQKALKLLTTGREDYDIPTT

[2] = target: T2, full-length human LIP5 M64A (human, UniProt Q9NP79 1-307, M64A); assay: as above; details: both partners purified
T2 construct: LIP5, human, full length, point mutant; spacer before the TEV site and His tag, as in m2; Mutant of m2; dimer as said of full-length LIP5 (cited); source: E. coli BL21*(DE3), purified (HisTrap, SEC)
T2 sequence: T1 sequence with A47M, M64A

Kd [1]: 463 nM | Kd [2]: 271 nM
B1: human aquaporin 2 (AQP2), wild-type (natural protein, UniProt P41181 1-271, looked up)
chain: MWELRSIAFSRAVFAEFLATLLFVFFGLGSALNWPQALPSVLQIAMAFGLGIGTLVQALGHISGAHINPAVTVACLVGCHVSVLRAAFYVAAQLLGAVAGAALLHEITPADIRGDLAVNALSNSTTAGQAVTVELFLTLQLVLCIFASTDERRGENPGTPALSIGFSVALGHLLGIHYTGCSMNPARSLAPAVVTGKFDDHWVFWIGPLVGAILGSLLYNYVLFPPAKSLSERLAVLKGLEPDTDWEEREVRRRQSVELHSPQSLPRGTKA
modifications: cysteine residues labeled with C5 maleimide Alexa 488; dephosphorylated with alkaline phosphatase before labeling
notes: concentrations and molar ratios seem to count monomers; His-tag is called uncleavable; also called WT; labeled AQP2; source: Pichia pastoris, purified (HisTrap, SEC) in OGNG; not shown: His-tag, N-terminal, kept
